Experiment [1] has as its target T1, human prolactin receptor (human, UniProt P16471 25-622).
T1 sequence (looked up): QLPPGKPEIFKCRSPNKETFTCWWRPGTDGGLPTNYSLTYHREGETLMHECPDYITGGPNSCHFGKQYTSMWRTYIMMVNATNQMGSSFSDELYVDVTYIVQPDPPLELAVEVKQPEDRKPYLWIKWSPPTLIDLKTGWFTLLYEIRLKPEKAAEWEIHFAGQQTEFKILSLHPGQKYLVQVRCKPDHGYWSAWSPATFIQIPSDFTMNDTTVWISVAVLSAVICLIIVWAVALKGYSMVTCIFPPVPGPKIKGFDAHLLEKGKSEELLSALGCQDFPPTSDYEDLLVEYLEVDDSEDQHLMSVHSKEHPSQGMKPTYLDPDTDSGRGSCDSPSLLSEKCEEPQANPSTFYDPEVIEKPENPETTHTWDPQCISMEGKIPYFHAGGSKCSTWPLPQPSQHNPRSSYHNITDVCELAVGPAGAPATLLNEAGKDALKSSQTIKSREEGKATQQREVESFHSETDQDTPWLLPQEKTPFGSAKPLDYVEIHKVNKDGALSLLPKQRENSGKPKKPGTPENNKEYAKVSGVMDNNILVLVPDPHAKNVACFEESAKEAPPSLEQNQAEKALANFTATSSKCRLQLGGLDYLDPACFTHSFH
Kind of experiment: competition with [125I]-hPRL on HL5 cell homogenates (human PRLR); mean of three experiments. As to the method: (§1) The affinity of the various hPRL analogs for the human PRLR was estimated by their ability to compete [¹²⁵I]-hPRL for binding to this receptor. Binding affinities were determined using cell homogenates of HL5 cells (expressing the human PRLR), following the procedure previously described (KINET et al., J. Biol. Chem., 274, 26033-26043, 1999).
(§2) Briefly, hPRL was iodinated using IODOGEN, and its specific activity was in the range of 40-50 μCi/μg. Binding assays were performed overnight at room temperature using 150-300 μg cell homogenate protein in the presence of 30,000 cpm [¹²⁵I]-hPRL and increasing concentrations of unlabeled competitor (WT or mutated hPRL).
(§3) The relative binding affinity of hPRL analogs was calculated as the ratio of their IC₅₀ with respect to that of WT hPRL calculated from competition curves (regression in the linear part of sigmoids). Results presented in FIG. 2A are representative of at least three independent experiments performed in duplicate.

Experiment [2] deals with T1, human prolactin receptor. Kind of experiment: competition with [125I]-hPRL on HL5 cell homogenates (human PRLR). The method, then:
as §1, §2, §3

The target in experiment [3] is T1, human prolactin receptor. Kind of experiment: cell-based or functional assay.
The target in experiment [4] is human prolactin receptor (human) (UniProt P16471). Kind of experiment: cell-based or functional assay.
For experiment [5] the target is unchanged. Kind of experiment: competition with [125I]-hPRL on HL5 cell homogenates (human PRLR); ratio of IC50 to that of WT hPRL.
Experiment [6] deals with T1, human prolactin receptor. Kind of experiment: competition of unlabeled WT hPRL with [125I]-hPRL on HL5 cell homogenates (human PRLR); mean of three experiments. As to the method:
as §1, §2, §3

Numbering of substitutions follows the chain as printed. In names and notes the source's numbering stands.

Broadly, the IC50 is the concentration that gives 50% inhibition. High values mean a need for much substance, low ones inhibition by little substance. On to “Δ1-9-G129R-hPRL (from UniProt P01236 10-199) (ligand)”, for which the IC50 in experiment [1] is 0.166 µg/mL. Further, the fold lower affinity compared to WT hPRL in experiment [2] came out at 10 fold. This molecule displayed a Ba/F3-hPRLR cell proliferation, antagonism of 10 ng/ml WT hPRL, molar excess needed in experiment [3] of 10 to 50 fold.

In experiment [4], “Δ1-10-hPRL (from UniProt P01236 11-199) (ligand)” registered an LHRE-luciferase reporter in HL5 cells, EC50 against WT hPRL of 2 fold and an LHRE-luciferase reporter in HL5 cells, maximal response against WT hPRL of 120 to 140%.

Consider “Δ1-9-hPRL (from UniProt P01236 10-199) (ligand)”, for which, in experiment [5], the increase in affinity compared to WT hPRL came to 20%. Moreover, in experiment [4], the LHRE-luciferase reporter in HL5 cells, EC50 against WT hPRL turned out to be 2 fold and the LHRE-luciferase reporter in HL5 cells, maximal response against WT hPRL was 120 to 140%.

B1: Δ1-13-hPRL (ligand, human)
chain: MTLRDLFDRAVVLSHYIHNLSSEMFSEFDKRYTHGRGFITKAINSCHTSSLATPEDKEQAQQMNQKDFLSLIVSILRSWNEPLYHLVTEVRGMQEAPEAILSKAVEIEEQTKRLLEGMELIVSQVHPETKENEIYPVWSGLPSLQMADEESRLSAYYNLLHCLRRDSHKIDNYLKLLKCRIIHNNNC
With B1, the “LHRE-luciferase reporter in HL5 cells, EC50 against WT hPRL” value in experiment [3] was roughly 2 fold.

B2: Δ1-14-hPRL (ligand, human)
chain: MLRDLFDRAVVLSHYIHNLSSEMFSEFDKRYTHGRGFITKAINSCHTSSLATPEDKEQAQQMNQKDFLSLIVSILRSWNEPLYHLVTEVRGMQEAPEAILSKAVEIEEQTKRLLEGMELIVSQVHPETKENEIYPVWSGLPSLQMADEESRLSAYYNLLHCLRRDSHKIDNYLKLLKCRIIHNNNC
For the molecule B2, in experiment [3], the “LHRE-luciferase reporter in HL5 cells, EC50 against WT hPRL” value was roughly 3 fold.

B3: Δ1-14-G129R-hPRL (ligand, human)
chain: B2 chain with G116R
notes: range 15-199; Mature-hormone numbering; also called Δ1-14-G129R-PRL; double mutant Δ1-14-G129R-hPRL
As to B3, the IC50 in experiment [1] stood at 0.187 µg/mL. Further, the “fold lower affinity compared to WT hPRL” value in experiment [2] is roughly 10 fold.

B4: Δ1-12-hPRL (ligand, human)
chain: MVTLRDLFDRAVVLSHYIHNLSSEMFSEFDKRYTHGRGFITKAINSCHTSSLATPEDKEQAQQMNQKDFLSLIVSILRSWNEPLYHLVTEVRGMQEAPEAILSKAVEIEEQTKRLLEGMELIVSQVHPETKENEIYPVWSGLPSLQMADEESRLSAYYNLLHCLRRDSHKIDNYLKLLKCRIIHNNNC
Take B4: the “LHRE-luciferase reporter in HL5 cells, EC50 against WT hPRL” value in experiment [3] was roughly 2 fold.

B5: Δ1-11-hPRL (ligand, human)
chain: MQVTLRDLFDRAVVLSHYIHNLSSEMFSEFDKRYTHGRGFITKAINSCHTSSLATPEDKEQAQQMNQKDFLSLIVSILRSWNEPLYHLVTEVRGMQEAPEAILSKAVEIEEQTKRLLEGMELIVSQVHPETKENEIYPVWSGLPSLQMADEESRLSAYYNLLHCLRRDSHKIDNYLKLLKCRIIHNNNC
Regarding B5, the “LHRE-luciferase reporter in HL5 cells, EC50 against WT hPRL” value in experiment [3] is roughly 2 fold.

B6: wild-type human prolactin (ligand, UniProt P01236 29-227, looked up)
chain: LPICPGGAARCQVTLRDLFDRAVVLSHYIHNLSSEMFSEFDKRYTHGRGFITKAINSCHTSSLATPEDKEQAQQMNQKDFLSLIVSILRSWNEPLYHLVTEVRGMQEAPEAILSKAVEIEEQTKRLLEGMELIVSQVHPETKENEIYPVWSGLPSLQMADEESRLSAYYNLLHCLRRDSHKIDNYLKLLKCRIIHNNNC
notes: mature; Monomeric fraction used; Residue numbers (Cys4, Cys11, Gly129) count on the mature hormone; also called WT hPRL; hPRL
In the case of B6, the IC50 in experiment [6] amounted to 0.018 µg/mL.

B7: G129R-hPRL (ligand, human, UniProt P01236 29-227, looked up)
chain: B6 chain with G129R
notes: mature; also called single mutant G129R-hPRL
As for B7, in experiment [2], the “fold lower affinity compared to WT hPRL” value was roughly 10 fold.

The values are drawn from patent publication US20060277614A1 (INSTITUT NAT L DE LA SANTE ET DE LA RECH MED, published 2006).
